Source: patent publication US20240252637A1

Biological target: CD19 on Namalwa cells (UniProt P15391)
Test: cell-based or functional assay

Sequence of UniProt P15391 (P15391 20-556 limits assumed): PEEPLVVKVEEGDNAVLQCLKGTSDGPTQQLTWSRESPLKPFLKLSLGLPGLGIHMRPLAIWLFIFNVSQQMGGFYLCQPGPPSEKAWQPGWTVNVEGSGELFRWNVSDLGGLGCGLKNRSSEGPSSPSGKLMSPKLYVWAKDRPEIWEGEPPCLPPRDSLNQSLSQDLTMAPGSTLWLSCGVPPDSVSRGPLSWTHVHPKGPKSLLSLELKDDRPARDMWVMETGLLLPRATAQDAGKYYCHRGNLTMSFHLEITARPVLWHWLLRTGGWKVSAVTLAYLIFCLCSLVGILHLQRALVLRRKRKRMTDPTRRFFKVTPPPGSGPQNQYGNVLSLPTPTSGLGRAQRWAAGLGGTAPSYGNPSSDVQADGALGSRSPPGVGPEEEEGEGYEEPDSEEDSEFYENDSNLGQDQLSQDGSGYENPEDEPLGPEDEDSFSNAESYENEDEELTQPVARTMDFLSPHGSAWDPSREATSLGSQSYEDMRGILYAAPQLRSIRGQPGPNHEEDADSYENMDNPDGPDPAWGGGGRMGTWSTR

Substance: CD19-CAR (third generation anti-CD19 chimeric antigen receptor, from the lenti-EF1-CD19-3rd-CAR-eGFt plasmid, Creative Biolabs) on the surface of exosomes from CAR-T cells
- Co-culture killing assay; decrease of CD19+ cells incubated with EXO-CD19-CAR: 60%
- Cytotoxicity assay of EXO-CAR-T against tumor cells (Namalwa); CD19+ cells eliminated at 150 µg/mL EXO-CAR-T: 70%
